The target in data set [1] is T1, Formate dehydrogenase from Candida boidinii (CbFDH) ([Candida] boidinii, UniProt A0A0A1EQY0).
T1 sequence (A0A0A1EQY0 1-364): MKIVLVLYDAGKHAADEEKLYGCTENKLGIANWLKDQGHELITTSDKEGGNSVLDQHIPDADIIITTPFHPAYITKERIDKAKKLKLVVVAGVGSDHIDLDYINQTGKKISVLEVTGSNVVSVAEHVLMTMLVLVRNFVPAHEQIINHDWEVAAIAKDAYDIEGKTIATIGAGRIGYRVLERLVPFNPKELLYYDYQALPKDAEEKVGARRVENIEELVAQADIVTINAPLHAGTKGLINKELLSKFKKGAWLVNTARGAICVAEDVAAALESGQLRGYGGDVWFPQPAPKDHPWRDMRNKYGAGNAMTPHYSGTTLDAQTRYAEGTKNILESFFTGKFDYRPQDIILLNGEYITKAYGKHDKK
As to the kind of experiment: ITC and crystal structure of the ternary complex with azide at […] Å. In kind it is binding.

Substrate in the data set “purified protein”: O=CO
As to the kind of experiment: purified protein. Particulars: NAD+. It counts as biochemical, [Candida] boidinii.

Data on two molecules can be found in PMC4917879 (Biochemistry, 2016).

As usually defined, the Kd is the equilibrium constant for the complex coming apart. Lower therefore signals a tighter complex. On to `NC(=O)c1ccc[n+]([C@@H]2O[C@H](COP(=O)([O-])OP(=O)(O)OC[C@H]3O[C@@H](n4cnc5c(N)ncnc54)[C@H](O)[C@@H]3O)[C@@H](O)[C@H]2O)c1` [NAD+], for which, in data set [1], the equilibrium dissociation constant (Kd) amounted to 92 ± 4 µM.

B1: Formate dehydrogenase from Candida boidinii (CbFDH) ([Candida] boidinii) (protein)
chain: T1 sequence (A0A0A1EQY0 1-364)
Broadly, the kcat is the number of substrate molecules converted per active site and unit of time at saturation. The term kcat/Km denotes the turnover number divided by the Michaelis constant. Regarding B1, in “purified protein”, the kcat is 5.6 ± 0.2 s⁻¹ and the catalytic efficiency (kcat/Km) is 1400 ± 200 M⁻¹ s⁻¹.
